Data on one substance can be found in publication PMC10349951.

“And” between values parts separate entries of the source, which are not always exact repeats. Equal values may be shown once.

The target of this assay is Recombinant Halo-tagged Synaptophysin labeled with Alexa488 (mouse) (UniProt Q62277). The assay is described as follows: single-molecule TIRF step photobleaching.

For the substance “Recombinant Halo-tagged Synaptophysin labeled with Alexa488 (from UniProt Q62277 1-314) (natural protein)”, the stoichiometry N was 3 copies and 5 copies.
